Values joined by “and” are separate entries in the source; they are usually repeats but may differ in a detail not shown here. Equal values may be shown once.
B1: mature human BMP-11 (ligand, UniProt O95390 299-407, looked up)
chain: NLGLDCDEHSSESRCCRYPLTVDFEAFGWDWIIAPKRYKANYCSGQCEYMFMQKYPHTHLVQQANPRGSAGPCCTPTKMSPINMLYFNDKQQIIYGKIPGMVVDRCGCS
notes: mature; also called GDF-11; biotinylated BMP-11
B2: Myo22 scFv (scFv)
scFv: EVQLLESGGGLVQPGGSLRLSCAASGFTFSSYAMSWVRQAPGKGLEWVSAISGSGGSTYYADSVKGRFTISRDNSKNTLYLQMNSLRAEDTAVYYCERMGPCTGGSCYDTLGNWGRGTLVTVSSGGGGSGGGGSGGGGSAQSVLTQPPSVSGAPGQRVTISCTGSSSNIGAGYDVHWYQQLPGAAPKLLIRGNGNRPSGVPDRFSVSKSGYSASLAITGLQPADEGVYYCQSYDSSLSGSKVFGQGTKLTVLGAAAHHHHHH
notes: tags from the vector are not described; also called scFv of Myo22
B3: Myo28 scFv (scFv)
scFv: QVTLKESGGGLVQPGGSLRLSCAASGFTFSRYVINWVRQAPGKGLEWVSAISVTGGSTAYADSVRGRFTISRDNSKNTLYLQMNSLRAEDTAVYYCTKGQWERGSYYFDYWGRGTLVTVSSGGGGSGGGGSGGGGSAQSVLTQPPSVSGAPGQRVTISCTGSSSNIGDGYDVHWYQQLPGTAPKLLIYGNSHRPSGVPDRFSGSKSDTSASLAITGLQVEDEADYFCHSYDGSVSGWIFGGGTKLTVLGAAAHHHHHH
notes: tags from the vector are not described; also called scFv of Myo28
B4: Myo29 human IgG1 antibody (antibody, V domains shown)
VH: QVQLVQSGAEVKKPGASVKVSCKASGYTFTSYYMHWVRQAPGQGLEWMGIINPSGGSTSYAQKFQGRVTMTRDTSTSTVYMELSSLRSEDTAVYYCARDENWGFDPWGQGTLVTVSS
VL: SYELTQPPSVSVSPGQTATITCSGHALGDKFVSWYQQGSGQSPVLVIYDDTQRPSGIPGRFSGSNSGNTATLTISGTQAMDEADYFCQAWDSSFVFGGGTKVTVLG
B5: Myo28 human IgG1 antibody (antibody, V domains shown)
VH: QVTLKESGGGLVQPGGSLRLSCAASGFTFSRYVINWVRQAPGKGLEWVSAISVTGGSTAYADSVRGRFTISRDNSKNTLYLQMNSLRAEDTAVYYCTKGQWERGSYYFDYWGRGTLVTVSS
VL: QSVLTQPPSVSGAPGQRVTISCTGSSSNIGDGYDVHWYQQLPGTAPKLLIYGNSHRPSGVPDRFSGSKSDTSASLAITGLQVEDEADYFCHSYDGSVSGWIFGGGTKLTVLG
B6: Myo29 scFv (scFv)
scFv: QVQLVQSGAEVKKPGASVKVSCKASGYTFTSYYMHWVRQAPGQGLEWMGIINPSGGSTSYAQKFQGRVTMTRDTSTSTVYMELSSLRSEDTAVYYCARDENWGFDPWGQGTLVTVSSGGGGSGGGGSGGGGSALSYELTQPPSVSVSPGQTATITCSGHALGDKFVSWYQQGSGQSPVLVIYDDTQRPSGIPGRFSGSNSGNTATLTISGTQAMDEADYFCQAWDSSFVFGGGTKVTVLGAAAHHHHHH
notes: tags from the vector are not described; also called scFv of Myo29

Experiments:
[1] = molecular target: T1, Recombinant ActRIIB-Fc chimera (R&D Systems, Cat. No. 339-RB/CF) (UniProt Q13705 19-134); test: ELISA, biotinylated ligand titrated on plate-coated ActRIIB-Fc, streptavidin-HRP
T1 construct: Bought reagent, coated on the plate; also called ActRIIB receptor; Fc part of the bought chimera not given

[2] = molecular target: T2, mature human GDF-8 (growth and differentiation factor-8) (human, UniProt O14793 267-375); test: inhibition of bioGDF-8 binding to plate-coated ActRIIB-Fc, purified scFv titrated, DELFIA TRF
T2 construct: also called myostatin; mature GDF-8

[3] = molecular target: T2, mature human GDF-8 (growth and …); test: inhibition of biotinylated GDF-8 (10 ng/ml) binding to plate-coated ActRIIB-Fc, ELISA, Myo29 preincubated with the ligand
[4] = molecular target: T2, mature human GDF-8 (growth and …); test: cell-based or functional assay
mature human BMP-11 = molecular target: B1; test: inhibition of biotinylated BMP-11 (10 ng/ml) binding to plate-coated ActRIIB-Fc, ELISA, Myo29 preincubated with the ligand

T1 sequence (Q13705 19-134, change not shown): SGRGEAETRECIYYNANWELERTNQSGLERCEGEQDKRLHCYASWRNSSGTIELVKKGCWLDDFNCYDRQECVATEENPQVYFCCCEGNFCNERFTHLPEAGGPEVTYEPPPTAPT

Binder: B1
- EC50 [1]: 0.04 µg/mL

Binder: B2
- IC50 [2]: 60 nM

Binder: B3
- IC50 [2]: 1.7 nM

Binder: B4
- IC50 [3]: 0.2 to 0.4 nM
- pGL3(CAGA)12 reporter gene assay (RGA) in A204 cells, GDF-8 at 20 ng/ml, IC50 [4]: 15 ng/ml to 30 ng/ml (2×) and 0.1 nM to 0.2 nM (2×)
- IC50 (mature human BMP-11): 0.2 to 0.4 nM

Binder: B5
- RGA and ActRIIB binding assays (not said which), IC50 [4]: 0.2 to 0.35 nM

Binder: B6
- IC50 [2]: 2.4 nM
